Data as given in US20090012494A1, “I[…] OF BIOLOGICAL AGENTS” (NanoPass Technologies Ltd., priority 2006, published 2009).

Target: T1, Insulin from Porcine Pancreas (antigen) (Sus scrofa, UniProt P01315)
T1 construct: Insulin from Porcine Pancreas; purchased SIGMA 1-5523; host or cells: porcine pancreas (tissue-derived)
Assay: Guinea pig ID immunization with porcine insulin; antigen/antibody complex by Dextran coated Charcoal Radioimmunoassay
Format: in vivo, Dunkin Hartley male Guinea Pigs
Experimental: Various animals (e.g., Guinea pigs) are used in industry to produce primary and secondary antibodies for biological and clinical research, based on immunoassay methods (e.g. ELISA). In some of these animals the specific antigen is injected intradermally, in order to achieve a larger and/or faster immune response (antibodies production). After the primary immunization, several immunization boosters are given at different time intervals, and blood is collected. The antibodies production level is measured by measuring the antigen/antibody complex formation levels, in different dilution levels, using conventional immunoassay methods. Usually, a fixed cut-off value (percentage of antigen/antibodies complex formation in a specific dilution level) must be achieved.
18 Dunkin Hartley male Guinea Pigs were divided into two groups. The animals were anesthetized with a 0.2 ml of Ketamine/Xylazine mixture (1:1 ratio) I.M. Anesthetizing was followed by 0.1 ml I.D. immunization with Insulin from Porcine Pancreas (SIGMA, Cat. No. 1-5523) in a Freund's adjuvant emulsion mixture (SIGMA), injected in 4 sites on the skin. […] After plasma separation, antigen/antibody complex levels were detected in the 2 ml serum sample, using a Dextran coated Charocal Radioimmunoassay method.

T1 sequence (P01315 25-54 limits assumed): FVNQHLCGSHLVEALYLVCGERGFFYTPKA
T1 sequence (P01315 88-108 limits assumed): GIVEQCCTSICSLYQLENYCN

Insulin from Porcine Pancreas: Insulin from Porcine Pancreas (SIGMA) in a Freund's adjuvant emulsion mixture, used as immunizing antigen
production time needed to achieve the per-protocol cut-off value, microneedle versus regular injection (cut-off 50% Antigen/Antibody complex formation at dilution 1:80 K, microneedle vs regular 25 g needle): 3 times shorter | Antigen/Antibody complex formation, Ka [L/mol] values, microneedle versus regular injection (dilution level 1:80K, ID microneedles (Nano) vs regular 25 g hypodermic needle, in Freund's adjuvant): more than 3 times higher
